# Measured values: the nanobody polyreactivity screen of Harvey et al. (2022)
# Assay: yeast display, Sf9 membrane polyspecificity reagent, FACS + sequencing; frameworks hold sequencing errors
# Method in brief: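 Polyreactivity labels are assigned by the sorting gate from which each nanobody was recovered. The gates were low and high (top ~1%), set on anti-HA fluorescence for expression and streptavidin fluorescence for reagent binding. Before sorting, galactose-induced (36–48 hours) yeast display cells were stained for 1 hour at 4 °C with 10% biotinylated, detergent-solubilized Sf9 membrane reagent.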
row,Sequence,polyreactivity (PSR sort gate)
1,QVQLVESGGGLVQAGGSLRLSCAASGRTFRYNTMGCYRQAPGKERELVAAITKGAASTYYADSVKGRFTISRDNAKNTVYLQMNSLKPEDTAVYYCNAVYSRIVTQKYWGQGTQVTVSS,high polyreactivity
2,QVQLVESGGGLVQAGGSLRLSCAASGRTFRYYALGWYRQAPGKERELVAAITSSGDSTYYADSVKGRFTISRDNAKNTVYLQMHSLKQEDTAVYYCADGQPLFYDAEYGYWGQGTQVTVSS,low polyreactivity
3,QVQLVESGGGLVQAGGSLRLSCAASGRTFRYYAMGWYIQAPGKERELVATITGSGGSTYYADSVKGRFTISRDNAKNTVYLQMNSLKPEDTAVYYCNARKVRYPYRWYDYWGQGTQVTVSS,high polyreactivity
4,QVQLVESGGGLVQAGGSLRLSCAASGRTFRYYAMGWYRKAPGKERELVASIRGGGGTNYADSVKGRFTISRDNAKNTVYLQMNSLKPEDTAVYFCAASVGYSRVWLDYWGQGTQVTVSS,high polyreactivity
5,QVQLVESGGGLVQAGGSLRLSCAASGRTFRYYAMGWYRQAPGKERELVAAINRGGSTYYADSVKGRFTISRDNAKNTVYLQMNSLKPEDTAVYYCNTARGSKDPPHYYWGQGSQVTVSS,high polyreactivity
6,QVQLVESGGGLVQAGGSLRLSCAASGRTFRYYAMGWYRQAPGKERELVAAINWNGGRTYYADSVKGRFTISRDNAKNTVYLQMNSLKPEDTAVYYCAAYHYRSPVTGDYWGQGTQVTVSS,high polyreactivity
7,QVQLVESGGGLVQAGGSLRLSCAASGRTFRYYAMGWYRQAPGKERELVAAIRTSGSTNYADSVKGRFTISRDNAKNTVYLQMNSLKPEDTAVYYCAAQPYWRYPYRAERDYWGQGTQVTVSS,high polyreactivity
8,QVQLVESGGGLVQAGGSLRLSCAASGRTFRYYAMGWYRQAPGKERELVAAISVRTGSTSYADSVKGRFTISRDNAKNTVYLQMNSLKPEDTAVYYCNAPQPGKGRTRTRYYYWGQGTQVTVSS,high polyreactivity
9,QVQLVESGGGLVQAGGSLRLSCAASGRTFRYYAMGWYRQAPGKERELVAAISWDGARSYYADSVKGRFTISRDNAKNTVYLQMNSLKPEDTAVYYCAADFPGGTDRYYPMDYWGQGTQVTVSS,low polyreactivity
10,QVQLVESGGGLVQAGGSLRLSCAASGRTFRYYAMGWYRQAPGKERELVAAITSSGGSTYYADSVKGRFTISRDNAKNTVYLQMNSLKPEDTAVYYCNRTPYHAPWQDALYRYGYWGQGTQVTVSS,high polyreactivity
11,QVQLVESGGGLVQAGGSLRLSCAASGRTFRYYAMGWYRQAPGKERELVADISSTGRTYYADSVKGRFTISRDNAKNTVYLQMNSLKPEDTAVYYCNADYFFEFDYWGQGTQVTVSS,low polyreactivity
12,QVQLVESGGGLVQAGGSLRLSCAASGRTFRYYAMGWYRQAPGKERELVASITGSGGSTTYADSVKGRFTISRDNAKNTVYLQMNSLKPEDTAVYYCAVRYPYYSYRAKLGYWGQGTQVTVSS,high polyreactivity
13,QVQLVESGGGLVQAGGSLRLSCAASGRTFRYYAMGWYRQAPGKERELVASITKRGGSTYYADSVKGRFTISRDNAKNTVYLQMNSLKPEDTAVYYCNTRTGSFFQGYYWGQGTQVTVSS,high polyreactivity
14,QVQLVESGGGLVQAGGSLRLSCAASGRTFRYYAMGWYRQAPGKERELVASITSGGRTYYADSVKGRFTISRDNAKNTVYLQMNSLKPEDTAVYYCAASTRYEGNYWGQGTQVTVSS,high polyreactivity
15,QVQLVESGGGLVQAGGSLRLSCAASGRTFRYYAMGWYRQAPGKVRELVAAINWSGGSTYYADSVKGRFTISRDNAKNTVYLQMNSLKPEDTAVYYCAAVGHPSPPRTDLYYWGQGTQVTVSS,low polyreactivity
16,QVQLVESGGGLVQAGGSLRLSCAASGRTFRYYAMGWYRQEPGKERELVAVITSGASTYYADSVKGRFTISRDNAKNTVYLQMNCLKPEDTAVYYCNARYSWKYDSWGQGTQVTVSS,high polyreactivity
17,QVQLVESGGGLVQAGGSLRLSCAASGRTFRYYAMGWYRQPPGKERELVAAISISGGNTYYADSVKGRFTISRDNAKNTVYLQMNSLKPEDTAVYYCAAAGRGSGYDYWGQGTQVTVSS,high polyreactivity
18,QVQLVESGGGLVQAGGSLRLSCAASGRTFRYYTKGWSRQAPGKERELVADINTSVGSTDYADSVKGRFTISRDNAKNTVYLQMNSLKPEDTAVYYCAKVGFTYYAVDYWGQGTQVTVSS,high polyreactivity
19,QVQLVESGGGLVQAGGSLRLSCAASGRTFRYYVMGWYRQAPGKERELVADISRGGGRTRYADSVKGRFTISRDNAKNTVDLQMNSLKPEDTAVYYCAARSYTGQFGYWGQGTQVTVSS,high polyreactivity
20,QVQLVESGGGLVQAGGSLRLSCAASGRTFSAYAMGWYRQAPGKERELVAAISRRGGSTYYADSVKGRFTISRDNAKNTVYLQMNSLKPEDTAVYYCAADVYKQYGYYYWGQGTQVTVSS,high polyreactivity
21,QVQLVESGGGLVQAGGSLRLSCAASGRTFSAYAMGWYRQAPGKERELVARITSVDSTNYADSVKGRFTISRDNAKNTVYLLMNSLKPEDTAVYYCNATFGYPFVDYDDYWGQGTQVTVSS,low polyreactivity

row,Sequence,polyreactivity (PSR sort gate)
1,QVQLVESGGGLVQAGGSLRLSCAASGRTFSFYAMGWYRQAPGKERELVAGIDWDDGSTSYADSVKGRFTISRDNAKNTVYLQMNSLKPEDTAVYYCAADIGYDVYNDYDYWGQGTQVTVSS,low polyreactivity
2,QVQLVESGGGLVQAGGSLRLSCAASGRTFSGNAMGWYRQAPGKERELVAAINWRGGRTYYADSVKGRFTISRDNAKNTVYLQMNSLKPEDTAVYYCAVSAYKGYDYWGQGTQVTVSS,high polyreactivity
3,QVQLVESGGGLVQAGGSLRLSCAASGRTFSGNARGWYRQAPGKERELVATITRRGGSTYYADSVKGRFTISRDNAKNTVYLQMNSLKPEDTAVYYCAARRVVNGGQGYESWGQGTQVTVSS,high polyreactivity
4,QVQLVESGGGLVQAGGSLRLSCAASGRTFSGYAMGWDRQAPGKERELDAAISRGGSTNYADSVKGRFTISRDNAKNTVYLQMNSLKPEDTAVYYCAVRVYYGWAQPGYYYWGQGTQVTVSS,high polyreactivity
5,QVQLVESGGGLVQAGGSLRLSCAASGRTFSGYAMGWYRQAPGKERELVAAISSGGGSTYYADSVKGRFTISRDNAKNSVYLQMNSLKPEDTAVYYCAADGYPGDYDYWGQGTQVTVSS,low polyreactivity
6,QVQLVESGGGLVQAGGSLRLSCAASGRTFSGYVMGWYRQAPGKERELVATINGSGASTYYADSVKGRFTISRDNAKNTVYLQTNSLKPEDTAVYYCAAKRYRPKYEYYYWGQGTQVTVSS,high polyreactivity
7,QVQLVESGGGLVQAGGSLRLSCAASGRTFSHNAMGWYRQAPGKERELVATINSGGSTYADSVKGRFTISRDNAKNTVYLQMNSLKPEDTAVYYCNAAHGSRAFFGGYDYWGQGTQVTVSS,high polyreactivity
8,QVQLVESGGGLVQAGGSLRLSCAASGRTFSKNAMGWYRQAPGKERELVADISRRGGRTYYADSVNGRFTISRDNAKNTVYLQMNSLKPEDTAVYYSAARRRGSVGVGYAYPYNYWGQGTQVTVSS,high polyreactivity
9,QVQLVESGGGLVQAGGSLRLSCAASGRTFSNNAMGWYRQAPGKERELVAAISSTGGRTYYADSVKGRFTISRDNAKNTGYLQLNSLKPEDTAVYYCAATYVHYPSLGYDYWGQGTQVTVSS,high polyreactivity
10,QVQLVESGGGLVQAGGSLRLSCAASGRTFSPYAMAWYRQAPGKEREFVAAIRVRGGSTYYADSVKGRFTISRDNAKNTVYLQMNSLKPEDTAVYYCNAQYLVYNGYPYLYDYWGQGTQVTVSS,high polyreactivity
11,QVQLVESGGGLVQAGGSLRLSCAASGRTFSPYAMGWYRQAPGKERELVAAITNGGSTHYADSVKGRFTISRDNAKNTVYLQMNSLKPEDTAVYYPYDYWGQGTQVTVSS,low polyreactivity
12,QVQLVESGGGLVQAGGSLRLSCAASGRTFSPYAMGWYRQAPGKERELVAAITSRGASTYYADSVKGRFTISRDNAKNTVYLQMNSLKPEDTAVYDCNSGRTYRRLGDYWGQGTQVTVSS,high polyreactivity
13,QVQLVESGGGLVQAGGSLRLSCAASGRTFSQNAMGWYRQAPGKERELVAAISWSGGRTYYADSVKGRFTISRDNAKNTVYLQMNSLKPEDTAVYYCAKSQHRTYYYWGQGTQVTVSS,high polyreactivity
14,QVQLVESGGGLVQAGGSLRLSCAASGRTFSQYAMGWYRQAPRKERELVAAISWGGRTYYADSVKGRFTISRDNAKNTVYLQMNSLKPEDTAVYYCAASSKLTYYEENHWGQGTQVTVSS,high polyreactivity
15,QVQLVESGGGLVQAGGSLRLSCAASGRTFSRNAMGRYRQAPGKVRELVATISSSGVRTYYADSVKGRFTMSRDNAKNTVYLQMNSLKPEETAVYYWAAAWRYYSAASGYDYWGQGTLVTVSS,low polyreactivity
16,QVQLVESGGGLVQAGGSLRLSCAASGRTFSRYAMGWYRQAPGKERELVAAISKSSGTTSYADSVKGRFTISRDNAKNTVYLQMKSQKPEDTAVYYCAAGITGRYYGVRFSEDYWGQGTQVTVSS,high polyreactivity
17,QVQLVESGGGLVQAGGSLRLSCAASGRTFSRYAMGWYRQAPGKERELVAAISSSGGSTYYADSVKGRFTISRDNAKNTVYLQMNSLKPEDTAVYYCAKYFIRDNRYDYWGQGTQVTVSS,high polyreactivity
18,QVQLVESGGGLVQAGGSLRLSCAASGRTFSRYTMGWYRQAPGKERELVARISQRGGSTYYADSVKGRFTISRDYAKNTVYLQMNSLKPEDTAVYYCAKKTYSPYGGYDSWGQGTQVTVSS,high polyreactivity
19,QVQLVESGGGLVQAGGSLRLSCAASGRTFSSYTMGWYRQAPGKERELVAAISWRGGSTYYADSVKGRFTISRDNAKYTVYLQMTSLKPEDTAVYYCNADVYSTYYNYNYWGQGTQVTVSS,high polyreactivity
20,QVQLVESGGGLVQAGGSLRLSCAASGRTFSTNAMGLYRQAPGKERELVAAISASGGSTYYADSVKGRFTISRDNAKTTVYLQMNSLKPEDTAVYYCAAYPGQWRTGYDYWGQGTQVTVSS,high polyreactivity
